The values that follow are results of earlier work, collected in article PMC12672491.

As usually defined, the Kd is the concentration at which binding is half-saturated.

Read-outs that look alike come from different tables or passages of the source.

In data set [1] the target is importin-α3 (Homo sapiens) (UniProt O00629).
Data set [2] has the same target. The source holds these as a separate data set.

UniProt O00629, sequence (O00629 2-521): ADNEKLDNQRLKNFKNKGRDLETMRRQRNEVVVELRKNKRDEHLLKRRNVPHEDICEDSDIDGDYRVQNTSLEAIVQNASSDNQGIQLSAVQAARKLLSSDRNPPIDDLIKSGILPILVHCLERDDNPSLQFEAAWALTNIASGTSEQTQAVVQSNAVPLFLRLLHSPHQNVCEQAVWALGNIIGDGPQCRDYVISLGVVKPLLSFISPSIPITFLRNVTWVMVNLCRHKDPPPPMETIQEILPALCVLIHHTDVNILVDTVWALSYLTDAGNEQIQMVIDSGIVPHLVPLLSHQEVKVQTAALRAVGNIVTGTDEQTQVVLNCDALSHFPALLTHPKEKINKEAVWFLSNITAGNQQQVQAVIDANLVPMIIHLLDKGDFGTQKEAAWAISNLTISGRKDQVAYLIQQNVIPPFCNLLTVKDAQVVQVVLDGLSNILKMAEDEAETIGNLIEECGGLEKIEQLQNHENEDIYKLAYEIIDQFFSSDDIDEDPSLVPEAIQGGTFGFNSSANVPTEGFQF

Take Snail (from UniProt O95863): the figures for the Kd in data set [1] and in data set [2] were 800 nM and 2100 nM, respectively.
